Laboratory results published in US20260193323.

What was measured:
LEKTI domains 10-15 = molecular target: T1, LEKTI domains 10-15
T1 chain: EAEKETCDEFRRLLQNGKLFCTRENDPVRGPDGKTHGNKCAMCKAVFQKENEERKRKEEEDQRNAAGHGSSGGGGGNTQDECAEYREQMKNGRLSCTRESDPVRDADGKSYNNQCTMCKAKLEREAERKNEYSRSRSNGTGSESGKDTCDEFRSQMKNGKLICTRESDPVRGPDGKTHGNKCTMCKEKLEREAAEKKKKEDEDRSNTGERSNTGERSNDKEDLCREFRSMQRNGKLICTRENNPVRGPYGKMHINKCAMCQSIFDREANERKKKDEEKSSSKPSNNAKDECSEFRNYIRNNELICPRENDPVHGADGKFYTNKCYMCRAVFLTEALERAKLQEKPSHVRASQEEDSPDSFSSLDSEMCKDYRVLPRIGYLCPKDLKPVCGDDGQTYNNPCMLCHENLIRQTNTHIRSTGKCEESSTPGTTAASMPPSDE

[1] = molecular target: T2, recombinantly produced LEKTI Domain 6
T2 chain: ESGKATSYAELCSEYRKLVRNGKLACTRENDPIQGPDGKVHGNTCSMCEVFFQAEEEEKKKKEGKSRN

B1: KLK7 (protein)
chain: IIDGAPCARGSHPWQVALLSGNQLHCGGVLVNERWVLTAAHCKMNEYTVHLGSDTLGDRRAQRIKASKSFRHPGYSTQTHVNDLMLVKLNSQARLSSMVKKVRLPSRCEPPGTTCTVSGWGTTTSPDVTFPSDLMCVDVKLISPQDCTKVYKDLLENSMLCAGIPDSKKNACNGDSGGPLVCRGTLQGLVSWGTFPCGQPNDPGVYTQVCKFTKWINDTMKKHR
What does the source list for B1?
KLK7 activity (Suc-Arg-Pro-Tyr-p-Nitro-Anilide substrate, 405 nm) (LEKTI domains 10-15): recombinantly produced LEKTI Domain 6 inhibits KLK7 in vitro about as well as LEKTI domains 10-15; KLK7 activity (Suc-Arg-Pro-Tyr-p-Nitro-Anilide substrate, 405 nm) [1]: recombinantly produced LEKTI Domain 6 inhibits KLK7 in vitro about as well as LEKTI domains 10-15
